Assay [1] addresses T1, Human CD38 (human, UniProt P28907 1-300).
T1 sequence: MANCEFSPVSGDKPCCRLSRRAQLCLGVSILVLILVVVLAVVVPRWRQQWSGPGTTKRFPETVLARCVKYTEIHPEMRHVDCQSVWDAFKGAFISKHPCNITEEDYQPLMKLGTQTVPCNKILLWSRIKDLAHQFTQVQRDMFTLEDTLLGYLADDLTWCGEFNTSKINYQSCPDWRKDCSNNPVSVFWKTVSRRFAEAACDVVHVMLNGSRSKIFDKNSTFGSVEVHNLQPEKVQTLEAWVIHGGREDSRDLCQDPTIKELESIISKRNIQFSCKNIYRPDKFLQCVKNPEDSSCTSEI
The assay can be described thus: flow cytometry on red blood cells of Donor 2; negative control. In general terms: A flow cytometer gives signals particle by particle.

The target in assay [2] is T1, Human CD38. The assay can be described thus: flow cytometry on red blood cells of Donor 3; negative control.
For assay [3], the target named is T1, Human CD38. In words: flow cytometry on red blood cells of Donor 1; negative control.
In assay [4] the target is T1, Human CD38. In words: flow cytometry on Ramos cells expressing CD38; negative control, ambiguous regression curve.
In assay [5] the target is T1, Human CD38. In words: flow cytometry on Raji cells expressing CD38; text value differs from Table 1 (273). The procedure: (§1) Cell lines/primary cell type used. […] Daudi, Raji, Ramos and cells were cultured in log-phase in RPMI-1640 Medium (ATCC 30-2001) supplemented with 10% FCS, 2 mM L-glutamine, 100 IU/ml penicillin, 100 μg/ml streptomycin and 1 mM sodium pyruvate (all from ThermoFisher) with viability of >85% as determined by automated cell counter (Countess II FL Automated Cell Counter; ThermoFisher; catalog #AMQAF1000) prior to experiments.
(§2) Cell staining and flow cytometry. All experiments were done in triplicates using a 96-well plate format. 50,000 cells were plated in each well of a 96-well round bottom tissue culture treated plate. […] Following a wash step with FACS cell staining buffer, cells were incubated with secondary antibody (rabbit anti-human Fcγ F(ab′)2 labeled with Alexa Fluor647; Jackson ImmunoResearch Catalog #309-606-008) at 5 μg/ml for 30 minutes on ice in the dark. Cells were washed once more with FACS cell staining buffer and analyzed by flow cytometry using a BD Biosciences FACSCalibur flow cytometer (San Jose, CA). FSC vs SSC gating was used to identify cells of interest. A total of 3,000 live single cells were recorded for each sample and corresponding fluorescent signal intensity histograms were analyzed. The mean fluorescence intensity (MFI) was calculated using FlowJo analysis software (Ashland, Oregon) for each antibody concentration.

Assay [6] addresses T1, Human CD38. The assay can be described thus: flow cytometry on Daudi cells expressing CD38. The method, then:
as §1, §2

Assay [7] has as its target T1, Human CD38. In words: flow cytometry on Ramos cells expressing CD38. The procedure:
as §1, §2

In assay [8] the target is T1, Human CD38. The assay can be described thus: flow cytometry on Raji cells expressing CD38. The procedure: as §1, §2

Human IgG1 isotype control antibody: the figures for the Max MFI in assay [1], in assay [2] and in assay [3] were 2110 MFI, 1960 MFI and 2560 MFI, respectively. For the same molecule, the EC50 in assay [4] stood at 0.001 µg/mL.

B1: CID103 (aCD38-b-348) (antibody, V domains shown)
VH: QLQLQESGPGLVKPSETLSLTCTVSGGSISSSDYYWGWIRQPPGKGLEWIGSIYYSGSTYYNPSLKSRVTISVDTSKNQFSLKLSSVTAADTAVYYCARGQYSSGWYAYPFDMWGQGTMVTVSS
VL: EIVLTQSPGTLSLSPGERATLSCRASQSVRSSYLAWYQQKPGQAPRLLIYGASSRATGIPDRFSGSGSGTDFTLTISRLEPEDFAVYYCQQDGNVYTFGGGTKVEIK
B1: the EC50 in assay [5] is 0.373 µg/mL; in assay [6] it was 0.382 µg/mL; in assay [7], 0.412 µg/mL; in assay [8], 0.273 µg/mL.

The EC50 is the concentration giving half of the maximal effect.

The record behind these values is patent publication US20250189544A1 (CASI PHARMACEUTICALS, published 2025).
